From IntAct's records for PubMed 23813973

Target: dnm1l_human DNM1L (UniProt O00429)
Sequence (O00429 whole entry): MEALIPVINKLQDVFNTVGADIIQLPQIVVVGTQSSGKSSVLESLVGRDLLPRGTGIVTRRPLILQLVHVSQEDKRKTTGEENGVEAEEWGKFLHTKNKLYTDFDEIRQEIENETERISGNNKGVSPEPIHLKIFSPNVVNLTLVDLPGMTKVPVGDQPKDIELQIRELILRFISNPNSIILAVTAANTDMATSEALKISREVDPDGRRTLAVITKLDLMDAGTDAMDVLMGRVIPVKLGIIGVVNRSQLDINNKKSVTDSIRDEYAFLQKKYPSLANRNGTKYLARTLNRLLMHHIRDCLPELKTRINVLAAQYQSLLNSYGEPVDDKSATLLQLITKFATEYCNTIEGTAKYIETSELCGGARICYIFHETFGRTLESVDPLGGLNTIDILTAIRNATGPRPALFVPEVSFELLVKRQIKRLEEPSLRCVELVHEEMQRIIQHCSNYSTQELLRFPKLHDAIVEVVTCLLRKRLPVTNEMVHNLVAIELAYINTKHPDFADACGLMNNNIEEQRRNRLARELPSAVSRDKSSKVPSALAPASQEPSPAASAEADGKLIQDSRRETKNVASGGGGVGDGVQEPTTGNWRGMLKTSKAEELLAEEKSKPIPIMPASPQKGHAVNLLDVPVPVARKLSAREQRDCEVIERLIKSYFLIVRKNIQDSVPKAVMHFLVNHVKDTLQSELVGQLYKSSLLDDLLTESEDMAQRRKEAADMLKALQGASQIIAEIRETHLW

effect of a mutation on the interaction: decreasing interaction
Substance: Leucine-rich repeat serine/threonine-protein kinase 2 (Homo sapiens), Q5S007 K1906A;D1994A;D2017A
